Experimental data reported in PMC4888843 (Genes & Development, 2016).

B1: loop-deleted human BCL-XL (Δ27–82, ΔC24) (domain or fragment)
chain: MSQSNRELVVDFLSYKLSQKGYSWSQMAAVKQALREAGDEFELRYRRAFSDLTSQLHITPGTAYQSFEQVVNELFRDGVNWGRIVAFFSFGGALCVESVDKEMQVLVSRIAAWMATYLNDHLEPWIQENGGWDTFVELYGNNAAAESRKGQER
B5: mouse Bcl-xLΔC24 (domain or fragment)
chain: MSQSNRELVVDFLSYKLSQKGYSWSQFSDVEENRTEAPEETEAERETPSAINGNPSWHLADSPAVNGATGHSSSLDAREVIPMAAVKQALREAGDEFELRYRRAFSDLTSQLHITPGTAYQSFEQVVNELFRDGVNWGRIVAFFSFGGALCVESVDKEMQVLVSRIASWMATYLNDHLEPWIQENGGWDTFVDLYGNNAAAESRKGQER

Legend:
crystal structure = biological target: the molecule itself; assay: crystal structure
[1] = biological target: B1; assay: crystal structure
mouse Bcl-xLΔC24 = biological target: B5; assay: SPR
mouse Bcl-xL Y101FΔC24 = mouse Bcl-xL Y101FΔC24 (mouse, UniProt Q64373-1 1-209, Y101F)
[2] = biological target: mouse Bcl-xL Y101F/Q111AΔC24 (mouse, UniProt Q64373-1 1-209, Y101F | Q111A)
[3] = biological target: BIM BH3 synthetic peptide; assay: SPR
human BCL-XLΔC24 = human BCL-XLΔC24 (human, UniProt Q07817-1 1-209); assay: ELISA

Binder: B1
- binding result (crystal structure): binds

B2: hBAK BH3 synthetic peptide (peptide)
peptide: LPLQPSSTMGQVGRQLAIIGDDINRRYDSEFQTM
- binding result [1]: binds

B3: mBak Q75L BH3 synthetic peptide (peptide)
peptide: LPLEPNSILGQVGRLLALIGDDINRRYDTEFQNL
- binding result [1]: binds
- fold weaker binding than wild-type Bak BH3 (mouse Bcl-xLΔC24): ~7 fold

B4: mBak BH3 synthetic peptide (peptide)
peptide: LPLEPNSILGQVGRQLALIGDDINRRYDTEFQNL
- fold weaker binding than wild-type Bcl-xL (mouse Bcl-xL Y101FΔC24): ~3.5 fold
- fold weaker binding than wild-type Bcl-xL [2]: ~3.5 fold

Binder: B5
- binding result [3]: binds

B6: phage-displayed human BAK BH3 peptide G82E (peptide)
peptide: PSSTMGQVGRQLAIIEDDINRRYDSE
- IC50 (human BCL-XLΔC24): > 10 µM

B7: phage-displayed human BAK BH3 peptide R76A (peptide)
peptide: PSSTMGQVGAQLAIIGDDINRRYDSE
- fold reduction in binding against wild-type BAK BH3 (from IC50) (human BCL-XLΔC24): 4 fold

B8: phage-displayed human BAK BH3 peptide Q77A (peptide)
peptide: PSSTMGQVGRALAIIGDDINRRYDSE
- fold reduction in binding against wild-type BAK BH3 (from IC50) (human BCL-XLΔC24): 8 fold
